B1: VH:VL chains; a variant is named by its letters at X, in order (parent)
chain 1: QVQLVQSGAEVKKPGASVKVSCKASGYTFTDYXMHWVRQAPGQGLEWMGXVNPNXXXTTYNQKFEGRVTMTTDTSTSTAYMELRSLRSDDTAVYYCARXNXLDXWGQGTTVTVSS
chain 2: DIQMTQSPSSLSASVGDRVTITCSVSSSVSSIYLHWYQQKPGKAPKLLIYSTSNLASGVPSRFSGSGSGTDFTLTISSLQPEDFATYYCQVYSGYPLTFGGGTKVEIK

Variants of B1 are the subject of the series. As to the kind of experiment: yeast display scFab, FACS + sequencing. Summed up: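 Non-specific binding was called from deep sequencing of sorted yeast cells displaying a heavy-chain CDR mutant scFab library. Cells labelled with anti-Myc and biotinylated ovalbumin (260 μg/mL in PBSB, 3 h, room temperature) or soluble membrane proteins (130 μg/mL, 20 min on ice) were FACS-sorted, collecting the top 25% and bottom 10% of binders from two replicates. A sequence was positive when present in ≥3 of 4 pooled positive samples and absent from all negatives, and negative under the converse rule.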
Regarding ARGRGSVA, the non-specific binding call was “binds”. Under YRGKDSVD stands “binds”. Under FRGRGSSD stands “binds”; under FRGRGSSA, “binds”; under FRGRGSSY, “binds”. For the variant YRGRGFSD, the non-specific binding call is “binds”. Turning to YRGRGFSA, the non-specific binding call is recorded as “binds”.

As to VRGRDDVV, the non-specific binding call is listed as “no binding”. Under YRGRDSWD stands “binds”; under VRGRDDSA, “no binding”. Turning to YRGKGSGF, the non-specific binding call is “binds”. Turning to YRGKGSGS, the non-specific binding call was “binds”.

For VRGRGFAA, the non-specific binding call is “binds”. The result for FRGRDAVD reads “binds”; that for FRGRDAVF, “binds”; that for YRGRASVV, “binds”. FRGRASLS: the non-specific binding call was “binds”. Under DRGRGDVV stands “no binding”; under YRGKGFGS, “binds”. The result for YRGRGFLV reads “binds”; that for FRGRDVVV, “binds”; that for FRGRDSGY, “binds”. Under YRGKSALA stands “binds”. In the case of FRGRDFGS, the non-specific binding call was “binds”.

Take FRGRGSWS: the non-specific binding call was “binds”. For FRGRGSWV, the non-specific binding call is listed as “binds”. Under DRGRDDGS stands “no binding”; under FRGKGSLA, “binds”; under SRGRDAWA, “binds”. On to SRGRGSWD, for which the non-specific binding call was “binds”.

YRGKGAWY: the non-specific binding call is listed as “binds”. With YRGKGAWA, the non-specific binding call is reported as “binds”. Turning to YRGKGAWS, the non-specific binding call is recorded as “binds”. On to FRGRGAGA, for which the non-specific binding call was “binds”. On to FRGRGAGS, for which the non-specific binding call is “binds”. For the variant ARGRDAWV, the non-specific binding call is recorded as “binds”. Under FRGRGSLS stands “binds”. Under FRGRGSLF stands “binds”; under FRGRGSLV, “binds”; under YRGRGAVF, “binds”. As to YRGKDASD, the non-specific binding call is listed as “binds”.

Turning to FRGRDFAD, the non-specific binding call is listed as “binds”.

On to YRGKGSWS, for which the non-specific binding call was “binds”. Under YRGKGSWA stands “binds”; under YRGRDSAS, “no binding”; under YRGRDSSS, “binds”. Under YRGRDDGD stands “no binding”; under YRGRASLY, “binds”.

As to YRGRDFVD, the non-specific binding call is on record as “binds”.

Turning to ARGRGSAA, the non-specific binding call is “binds”.

Regarding DRGRDFGV, the non-specific binding call was “no binding”.

With VRGKGASA, the non-specific binding call is on record as “binds”. Under DRGRDDLV stands “no binding”.

As to FRGKGASD, the non-specific binding call is listed as “binds”. For the variant FRGKGASS, the non-specific binding call is on record as “binds”.

FRGKGASV: the non-specific binding call is “binds”.

Regarding VRGKGAAD, the non-specific binding call is “binds”.

Regarding YRGRDVGY, the non-specific binding call is given as “binds”. On to SRGRGAVS, for which the non-specific binding call is on record as “binds”.

For SRGRGAVD, the non-specific binding call was “binds”. Turning to YRGRDDWF, the non-specific binding call is recorded as “no binding”.

Turning to DRGRDAGA, the non-specific binding call was “no binding”. The result for DRGRDAGD reads “no binding”; that for DRGRDDAA, “no binding”; that for DRGRDSSA, “no binding”.

Consider YRGRGSWY, for which the non-specific binding call is listed as “binds”. The result for DRGRGDWV reads “no binding”; that for YRGKGAVF, “binds”; that for YRGKGAVS, “binds”.

With YRGRAAVS, the non-specific binding call was “binds”. For FRGKGAWD, the non-specific binding call is “binds”. Under YRGRGFVV stands “binds”.

In the case of YRGRGFVY, the non-specific binding call is recorded as “binds”.

For YRGRGFVA, the non-specific binding call was “binds”. The result for YRGRGFVD reads “binds”; that for FRGRGAVY, “binds”; that for SRGKGALD, “binds”.

In the case of YRGKSSVD, the non-specific binding call was “binds”. For the variant YRGRDSVS, the non-specific binding call is given as “binds”. YRGRGASF: the non-specific binding call is recorded as “binds”.

YRGRGALS: the non-specific binding call is “binds”. Under YRGRGALF stands “binds”; under FRGRGFSV, “binds”; under FRGRGFSA, “binds”. The result for FRGRGASD reads “binds”; that for FRGRGASV, “binds”; that for YRGKGSLA, “binds”. The result for VRGRDAVS reads “binds”; that for SRGRGFAA, “binds”. With VRGKGSLA, the non-specific binding call is reported as “binds”. Under FRGRGAAY stands “binds”; under FRGRGAAS, “binds”.

As for YRGRGAWF, the non-specific binding call is reported as “binds”.

Take FRGRGDGD: the non-specific binding call is recorded as “binds”. Under FRGRGDGY stands “binds”; under FRGRDFLF, “binds”; under FRGRDFLD, “binds”.

On to FRGKGSAD, for which the non-specific binding call is on record as “binds”. Under FRGKGSAV stands “binds”; under YRGKSDGS, “binds”. As for YRGRDDLA, the non-specific binding call is “no binding”. The result for YRGKSSWA reads “binds”.

Regarding FRGRDSSF, the non-specific binding call is reported as “binds”. As for YRGRGFGY, the non-specific binding call is “binds”. The result for YRGRGFGF reads “binds”.

As for YRGRGFGV, the non-specific binding call is “binds”. The result for YRGRGFGS reads “binds”; that for FRGRDVAV, “binds”; that for YRGRGVAA, “binds”. On to FRGRDFVA, for which the non-specific binding call is “binds”. Consider FRGRDFVS, for which the non-specific binding call is “binds”. Take VRGRDYGD: the non-specific binding call was “binds”.

As to YRGRGSVY, the non-specific binding call was “binds”. With YRGKGAGY, the non-specific binding call was “binds”.

Take YRGKGAGF: the non-specific binding call was “binds”.

As for FRGRDYAA, the non-specific binding call was “binds”. On to FRGRDDWA, for which the non-specific binding call was “no binding”.

On to FRGRDFSA, for which the non-specific binding call was “binds”. As to YRGRDAGF, the non-specific binding call is listed as “binds”. FRGRASAD: the non-specific binding call was “binds”. The result for YRGRGFWF reads “binds”. The result for YRGKGSAV reads “binds”. The result for YRGKGSAD reads “binds”; that for YRGKGSAA, “binds”; that for FRGKGSGF, “binds”. On to FRGKGSGD, for which the non-specific binding call was “binds”. Regarding FRGKGSGA, the non-specific binding call is given as “binds”.

(Values after the emibetuzumab library of Makowski et al. (2022).)
